# Results from publication PMC9976466, “Insights into the structure-function relationship of the NorQ/NorD chaperones from Paracoccus denitrificans reveal shared principles of interacting MoxR AAA+/VWA domain proteins” (BMC Biology, 2023).
# Values joined by “and” are separate entries in the source; they are usually repeats but may differ in a detail not shown here. Equal entries are not always repeated.
# B1: untagged NorQ^WB (E109Q), co-expressed with 6-His-tagged NorD (enzyme, Paracoccus denitrificans, UniProt Q51664 1-270, looked up)
# chain: MNAHVKTQGNGAVDAPFYLPQGDEVAVFEAAAANDLPVLLKGPTGCGKTRFVAHMAARLGRPLYTVACHDDLSAADLIGRYLLKGGETVWTDGPLTRAVREGAICYLDQVVEARKDVTVVLHPLTDDRRILPIDRTGEEIEAAPGFMLVASYNPGYQNILKTLKPSTRQRFVAMEFDFPEPAREVEIVARESGLDRDRTLGLVRLAGKIRGLKGQDLEEGVSTRLVVYAASLTRRGMNLDRAIEAAMIEPLTDDAEVKRGLRDLAAAIFG
# notes: NorQ of Paracoccus denitrificans, Uniprot Q51663, Walker B variant; the norQ gene was cloned into a pET21a backbone with the T7 RBS; Hexameric within the NorQ^WBD complex (BN-PAGE, cryo-EM); trimer to hexamer after addition of ATP; also called NorQ^WB (in NorQ^WBD; Q^WBD)
# B2: wildtype 6-His-tagged NorQ (enzyme, Paracoccus denitrificans, UniProt Q51664 1-270, looked up)
# chain: MNAHVKTQGNGAVDAPFYLPQGDEVAVFEAAAANDLPVLLKGPTGCGKTRFVAHMAARLGRPLYTVACHDDLSAADLIGRYLLKGGETVWTDGPLTRAVREGAICYLDEVVEARKDVTVVLHPLTDDRRILPIDRTGEEIEAAPGFMLVASYNPGYQNILKTLKPSTRQRFVAMEFDFPEPAREVEIVARESGLDRDRTLGLVRLAGKIRGLKGQDLEEGVSTRLVVYAASLTRRGMNLDRAIEAAMIEPLTDDAEVKRGLRDLAAAIFG
# notes: NorQ, MoxR-class AAA+ ATPase of Paracoccus denitrificans, Uniprot Q51663; the norQ gene was cloned into a pET21a backbone; about 30 kDa; Expressed without NorD; Forms several oligomeric states from monomer to hexamer; source: dialysis
# What was measured:
# NorQ = biological target: T1, NorQ (Paracoccus denitrificans, UniProt Q51664, E109Q); test: Blue Native PAGE, ATP-induced shift to hexamer; format: binding; conditions: 2 mM ATP, 20 mM MgCl2; Walker B variant, ATPase activity lost
# T1 construct: full length, N-terminal 6-His tag (pET-hQ), expressed in E. coli BL21(DE3); ~30 kDa monomer, several oligomeric states up to hexamer
# [1] = biological target: the molecule itself; test: native gel or EMSA; BN-PAGE of purified NorQ^WBD (~10 μg per lane) after addition of ATP
# [2] = biological target: 6-His-tagged NorD (Paracoccus denitrificans); test: as above
# [3] = biological target: the molecule itself; test: native gel or EMSA + SEC; BN-PAGE (NativePAGE 4-16% Bis-Tris, 4 °C) of purified NorQ (14 μg) and NorQ^WB (18 μg), with 2 mM ATP and 20 mM MgCl2 in Fig. 2b; SEC on Superdex 200 in 20 mM TRIS/HCl pH 8, 300 mM NaCl, 10% glycerol
molecule,measurement,setting,value
Nc1ncnc2c1ncn2[C@@H]1O[C@H](COP(=O)(O)OP(=O)(O)OP(=O)(O)O)[C@@H](O)[C@H]1O [ATP],"Blue Native PAGE, ATP-induced shift to hexamer",NorQ,clear shifting of the oligomerization state to the hexamer (Fig. 2b) for the NorQ^WB
B1,stoichiometry N,[1],3
same,stoichiometry N,[2],3
B2,stoichiometry N,[3],6 and 3 and 4 and 5
